Experimental data published in US20250051455A1 (Hoffmann-La Roche, published 2025).
Residue numbers refer to the chain shown, from its start.

B1: HLA-G-0039 (antibody, V domains shown)
VH: EVQLLESGGGLVQPGGSLRLSCAASGFTFSSYAMNWVRQAPGKGLEWVSVISGSGVSTYYADSVKGRFTISRDNSRNTLSLQMNSLRAEDTAVYYCAKDGSYNYGYGDYFDYWGQGTLVTVSS
VL: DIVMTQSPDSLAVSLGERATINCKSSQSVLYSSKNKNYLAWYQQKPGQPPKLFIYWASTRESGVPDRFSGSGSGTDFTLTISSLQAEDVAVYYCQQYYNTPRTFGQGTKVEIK
notes: Human antibody from humanized OmniRat (OMT) rats
B2: HLA-G-0041 (antibody, V domains shown)
VH: B1 VH with S31T, A33G, N35S, S54G, R76K, S80Y, S85R
VL: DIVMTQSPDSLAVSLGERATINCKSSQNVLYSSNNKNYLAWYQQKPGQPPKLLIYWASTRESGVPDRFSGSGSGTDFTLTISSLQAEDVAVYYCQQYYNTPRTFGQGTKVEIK
notes: as for B1
B3: HLA-G-0031 (antibody, V domains shown)
VH: QVKLMQSGAALVKPGTSVKMSCNASGYTFTDYWVSWVKQSHGKRLEWVGEISPNSGASNFDENFKDKATLTVDKSTSTAYMELSRLTSEDSAIYYCTRSSHGSFRWFAYWGQGTLVTVSS
VL: AIVLNQSPSSIVASQGEKVTITCRASSSVSSNHLHWYQQKPGAFPKFVIYSTSQRASGIPSRFSGSGSGTSYSFTISRVEAEDVATYYCQQGSSNPYTFGAGTKLELK
notes: Rat monoclonal antibody obtained from CD rats
B4: HLA-G-0090 (antibody, V domains shown)
VH: QVQLQQSGPGLLKPSQTLSLTCAISGDSVSSNRAAWNWIRQSPSRGLEWLGRTYYRSKWYNDYAVSVQGRITLIPDTSKNQFSLRLNSVTPEDTAVYYCASVRAVAPFDYWGQGVLVTVSS
VL: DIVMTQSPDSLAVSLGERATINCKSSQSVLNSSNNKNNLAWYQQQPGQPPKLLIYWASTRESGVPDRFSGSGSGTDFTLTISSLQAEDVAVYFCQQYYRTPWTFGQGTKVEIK
notes: as for B1

These binders were tested against T1, recombinant soluble human HLA-G β2M MHC class I complex, dimer (human) (assay: ELISA, HLA-G dimer coated at random on plate).
T1 construct: Non-biotinylated; also called HLA-G Dimer; dimeric HLA-G
Protocol: The above table summarizes the binding of different rat anti-human HLA-G monoclonal antibodies, derived from wt protein IMS. Shown are the relative EC50 values [ng/ml] of the respective binding to rec. wt monomeric, dimeric and trimeric HLA-G proteins as assessed by ELISA. The ELISA was set up by coating the biotinylated wt HLA-G antigen to strepdavidin plates. After incubation and washing steps, the respective antibodies were bound in a concentration range from 10-0 μg in 1:2 dilution steps. Detection of bound antibodies was carried out by anti-Fc-antibody-POD conjugates. EC50 values were determined from the resulting binding curves at the antibody concentrations generating the half-maximal signal. In case of the non-biotinylated HLA-G dimer and trimer antigens, immobilization was carried out by random coating on assay plates.

Row | EC50 [nM] | Binder
1 | 4.1 | B1
2 | 5.31 | B2
3 | 1.87 | B3

What follows are binders tested against T2, recombinant soluble human HLA-G β2M MHC class I complex, trimer (human) (assay: competition ELISA, one antibody concentration; competitor coated ILT2-Fc).
T2 construct: Non-biotinylated; also called HLA-G Trimer; trimeric HLA-G
Protocol: The ELISA was set up by coating the Fc tagged ILT2 and ILT4 respectively to Maxisorp microtiter plates. After incubation and washing steps, the respective antibodies were added at a concentration of 100 nM. Soluble His tagged monomeric, dimeric or trimeric HLA-G was added to the wells. After incubation and washing steps, detection of bound receptor was carried out by anti-His-antibody-POD conjugates.
The above tables summarize the blocking of interaction between rec. HLA-G proteins (monomer and oligomers) to its receptors ILT2 and ILT4 by the described HLAG antibodies at a concentration of 110 nM (*HLAG-0090 was tested at a concentration of 44 nM) as assessed by ELISA. Shown are the % inhibitions of the HLA-G/receptor interaction (for ILT2 and ILT4). The less pronounced ILT4 inhibition depends on the major β2M dependent interaction of this receptor.

Row | % inhibition of ILT2 binding [%] | Binder
4 | 70 | B1
5 | 67 | B2
6 | 100 | B3

These binders were tested against T3, recombinant soluble human HLA-G β2M MHC class I complex, monomer (human) (assay: ELISA, biotinylated wt HLA-G monomer on streptavidin plate).
T3 construct: His tagged; biotinylated where coated on streptavidin plates, non-biotinylated in SPR; also called HLA-G-0003; wt HLA-G (monomer)
Protocol: Streptavidin coated plates (Nunc, MicroCoat #11974998001) were coated with 25 μl/well biotinylated human wt HLA-G at a concentration of 250 ng/ml and incubated at 4° C. overnight. After washing (3×90 μl/well with PBST-buffer) 25 μl anti-HLA-G samples (1:3 dilution in OSEP buffer) or reference antibody (G233, Thermo/Pierce #MA1-19449, 500 ng/ml) were added and incubated 1 h at RT. After washing (3×90 μl/well with PBST-buffer) 25 μl/well goat-anti-mouse H+L-POD (Biorad #170-6561, 1:2000 in OSEP) or donkey-anti-rabbit IgG POD (GE #NA9340V, 1:5000 in OSE) was added and incubated at RT for 1 h on shaker. For detection of rat IgGs a mixture of goat-anti-rat IgG1-POD (Bethyl #A110-106P), goat-anti-rat IgG2a-POD (Bethyl #A110-109P) and goat-anti-rat IgG2b-POD (Bethyl #A110-111P) 1:10000 in OSEP was added and incubated at RT for 1 h on shaker. After washing (6×90 μl/well with PBST-buffer) 25 μl/well TMB substrate (Roche, 11835033001) was added and incubated until OD 2-3. Measurement took place on a Tecan Safire 2 instrument at 370/492 nm.
The above table summarizes the binding of different rat anti-human HLA-G monoclonal antibodies, derived from wt protein IMS both of wt as well as OMT rats. Shown are the relative EC50 values [ng/ml] and maximal OD of the respective binding to rec. wt monomeric HLA-G protein or the socalled gegrafted HLA-G (HLA-A consensus sequence on HLA-G backbone) protein as assessed by ELISA. The ELISA was set up by coating the biotinylated wt HLA-G or consensus antigen to strepdavidin plates. After incubation and washing steps, the respective antibodies were bound in a concentration range from 10-0 μg in 1:2 dilution steps. Detection of bound antibodies was carried out by anti-Fc-antibody-POD conjugates. EC50 values were determined from the resulting binding curves at the antibody concentrations generating the half-maximal signal.

Row | Max. OD [OD] | Binder
7 | 1.4 | B1
8 | 2.3 | B2
9 | 1.6 | B3
10 | 3.4 | B4

The binders below were run against T3, recombinant soluble human HLA-G β2M MHC … (assay: SPR Biacore T200, antibody captured via anti-Fc, HLA-G monomer as analyte, 25 C).
Protocol: Binding kinetics of anti-HLA-G antibodies to human HLA-G, human HLA-G degrafted and human HLA-A2 were investigated by surface plasmon resonance using a BIACORE T200 instrument (GE Healthcare). All experiments were performed at 25° C. using PBS Buffer (pH 7.4+0.05% Tween20) as running buffer and PBS Buffer (+0.1% BSA) as dilution buffer. Anti-human Fc (JIR009-005-098, Jackson) or anti-rat Fc (JIR112-005-071, Jackson) or anti-Mouse Fc (JIR115-005-071, Jackson) antibodies were immobilized on a Series S CM5 Sensor Chip (GE Healthcare) at pH 5.0 by using an amine coupling kit supplied by GE Healthcare. Anti-HLA-G antibodies were captured on the surface leading to a capturing response of 50-200 RU. HLA-G molecules were injected for 180 s at 30 μl/min with concentrations from 2.5 up to 800 nM (2×1:2 and 4×1:3 dilution series) onto the surface (association phase). The dissociation phase was monitored for 300-600 sec by washing with running buffer. The surface was regenerated by injecting H3PO4 (0,85%) for 60+30 seconds for anti-human Fc capturing antibodies, glycine pH1,5 for 60 seconds and glycine pH2,0 for 60 seconds for anti-rat Fc capturing antibodies, H3PO4 (0,85%) for 80+60 seconds for anti-mouse Fc capturing antibodies. Bulk refractive index differences were corrected by subtracting the response obtained from a mock surface. Blank injections were subtracted (double referencing). The derived curves were fitted to a 1:1 Langmuir binding model using the BIAevaluation software.
The above table summarizes the antibody affinities and t½ values against wt and degrafted HLA-G as assessed by Surface plasmon resonance (Biacore) analysis. Binding kinetics of anti-HLA-G antibodies to human HLA-G and human HLA-G degrafted were investigated by surface plasmon resonance using a BIACORE T200 instrument (GE Healthcare). All experiments were performed at 25° C. using PBS Buffer (pH 7.4+0.05% Tween20) as running buffer and PBS Buffer (+0.1% BSA) as dilution buffer. Anti-human Fc (JIR009-005-098, Jackson) or anti-rat Fc (JIR112-005-071, Jackson) or anti-Mouse Fc (JIR115-005-071, Jackson) antibodies were immobilized on a Series S CM5 Sensor Chip (GE Healthcare) at pH 5.0 by using an amine coupling kit supplied by GE Healthcare.

Row | Kd [nM] | koff [s⁻¹] | kon [M⁻¹ s⁻¹] | t 1/2 [min] | Binder
11 | 0.95 | 0.00044 | 460000 | 27 | B1
12 | 1.3 | 0.00049 | 380000 | 23 | B2
13 | 75 | 0.0037 | 49000 | 3 | B3
14 | 3.6 | 0.00085 | 230000 | 14 | B4
